This series has as its system MS2 coat protein. Briefly: apparent KD of MS2 coat protein; designed switch direction (-1 OFF switch, 1 ON switch): 1; higher = weaker reporter binding. The essentials:
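For each design, the apparent KD is the median over clusters of curves fitted to normalised cluster fluorescence. Clusters held RNA switches with common flanks, transcribed on Illumina chips by stalled E. coli RNA polymerase. These were titrated with SNAP-549-labelled MS2 coat protein, doubling from 0.7 or 1.5 nM to 3 µM, without input, with 200 uM small-molecule ligand, or with an oligonucleotide input.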

[1] abbreviates: Eterna round: R95, input ligand: FMN 200 uM.
[2] abbreviates: Eterna round: R95, input ligand: microRNA oligo, concentration not stated.
The mark [3] stands for this setting: Eterna round: R95, input ligand: none.
Setting [4] is: input ligand: microRNA oligo, concentration not stated.

With “AGUCCAGCGAAAGCUGGACAAAAGCAUGUACAUGAGGAUCACCCAUGUUCAUGUACAAGUUUUUUGCUCGUUUUAAA [JL mod - D95 - 18] (puzzle: Sensor for hsa-mir-208a)”, the “apparent KD of MS2 coat protein” value under setting [1] turned out to be 37.8 nM, the “apparent KD of MS2 coat protein” value under setting [2] was determined as 10.3 nM and the “apparent KD of MS2 coat protein” value under setting [3] worked out at 45.8 nM.
The matching figures for “AGUCCAGCGAAAGCUGGACAAAGGCAUGUACAUGAGGAUCACCCAUGUUCAUGUACAAGCUUUUUGCUCGUCUUAAA [JL mod - D95 - 3] (puzzle: Sensor for hsa-mir-208a)”: 147 nM, 14 nM and 194 nM.
“AUAAAACAUGAGGAUCACCCAUGUCAACAAAAUCGAGGAUAUGGACAGACUUCGGUCUGUCCAGAAGGCGAAUAAU [salish99_ss1_r3_100] (Eterna round: R96, puzzle: Same State 1)”: the “apparent KD of MS2 coat protein” value came to 15.1 nM (input ligand: FMN 200 uM), 12.7 nM under setting [4] and 17.4 nM (input ligand: none).
With “AUAAAACAUGAGGAUCACCCAUGUCAACAAAAUCGAGGAUAUGGACAGACUUCGGUCUGUCCAGAAGGCGAAUAAU [salish99_ss1_r3_100] (puzzle: Same State 1)”, the “apparent KD of MS2 coat protein” value under setting [2] stood at 13.8 nM.
Take “AUAAAACAUGAGGAUCACCCAUGUGGCGCUGACACAGGAUAUCAUGCGGAACUGGACGUAUGAGAAGGGUGAUGCG [Diateedza] (puzzle: Same State 1)”: the “apparent KD of MS2 coat protein” value runs as follows: under setting [1], 53 nM; under setting [2], 216 nM; under setting [3], 419 nM.
With “AUAAAUAACACAGGAUAUCCGCACGAGUAGUACGGAGAAGGGUGAACGUCGGCUCUCGCCAACAUGAGGAUCACCCAUGUAAAA [Usesesana] (Eterna round: R96, puzzle: Same State NG 1)”, the “apparent KD of MS2 coat protein” value (input ligand: FMN 200 uM) was 1160 nM, the “apparent KD of MS2 coat protein” value under setting [4] came to 432 nM and the “apparent KD of MS2 coat protein” value (input ligand: none) worked out at 734 nM.
On the same counts, the results for “AUAAGAAACACAGGAUAUACCGCACUUAACACGGUAGAAGGGUGGGACAUGAGGAUCACCCAUGUGGUCCGGGCGCCGGACCGC [Geenusrior] (Eterna round: R96, puzzle: Same State NG 1)” are 711 nM, 27.8 nM and 329 nM.
On the same counts, the results for “AUAAGACACAUGAGGAUCACCCAUGUGGCCGUAGUCGGCUCACAGGAUAUCAAGCUACUAGUGCUUGAGAAGGGUGAGACAAGC [Raar Mod] (Eterna round: R96, puzzle: Same State NG 3)” are 57.3 nM, 190 nM and 323 nM.
For “AUAAGUUCGAUGCUCGUCUCUCCGUACAAACAUGAGGAUCACCCAUGUGAUCGGGAAGUAGCCCGGUCAGUAUGGCC [Ordierti] (puzzle: Sensor for hsa-mir-208a)”, the “apparent KD of MS2 coat protein” value by setting is: under setting [1], 35.1 nM; under setting [2], 24.4 nM; under setting [3], 38.5 nM.
As for “AUAAGUUCGAUGCUCGUCUCUCCGUACAAACAUGAGGAUCACCCAUGUGAUUGAGCAGUAGCCCAAUCAGUAUGGCC [Tileus] (puzzle: Sensor for hsa-mir-208a)”, the “apparent KD of MS2 coat protein” value is, setting by setting: under setting [1], 45.1 nM; under setting [2], 23.9 nM; under setting [3], 47.9 nM.
The matching figures for “AUAAGUUCGAUGCUCGUCUCUCCGUACAAACAUGAGGAUCACCCAUGUGAUUGGGCAAUAGCCCAAUCAGUAUGACC [Gemaa] (puzzle: Sensor for hsa-mir-208a)”: 38.1 nM, 26 nM and 41.5 nM.
Regarding “AUAGUUGCCGAAGGAUAUGAUGAGGAUCACCCAUCAGAAGGUUGGCUAUUGGGUGGACAUGAGGAUCACCCAUGUCCUUUGGUA (Eterna round: R96, puzzle: Same State NG 1)”, the “apparent KD of MS2 coat protein” value amounted to 95.1 nM (input ligand: FMN 200 uM), 119 nM under setting [4] and 147 nM (input ligand: none).
On the same counts, the results for “AUAUGAGGAGCAGGAUAUGCGGAGAAGAAAGAAGCAGAAGGGCUCAUGGGACGACAUGAGGAUCACCCAUGUGCUCCGCGAUGA [AK SSNG1-V2-4] (Eterna round: R96, puzzle: Same State NG 1)” are 69.9 nM, 29.5 nM and 328 nM.
The matching figures for “AUAUUCUUCCGCGACACCCACAUGAGGAUCACCCAUGUUGAACAGGAUAUGUAGUUCAUCUGAACACAGAAGGGUUAAAGGAAG [Eternabot solution 28] (Eterna round: R96, puzzle: Same State NG 3)”: 16.5 nM, 16.5 nM and 20 nM.
In the case of “AUCUCUGUGCCGCAGGAUAUACCAACGGCUACAUGAGGAUCACCCAUGUCAUACCGUCGAAAAUGGUAGAAGGGUGUGCACGAGC [Leesmala] (puzzle: Same State 2)”, the “apparent KD of MS2 coat protein” value under setting [1] amounted to 16.4 nM, the “apparent KD of MS2 coat protein” value under setting [2] is 45.5 nM and the “apparent KD of MS2 coat protein” value under setting [3] stood at 61.3 nM.
As for “AUGCCAAAAGGAGGAUAUGGAGCCUUAUUGGCUCCAGAAGGCUUGACAUGAGGAUCACCCAUGUGGCAGUGGUCUAAUGACCAC [Eli NG1ss - 43] (Eterna round: R96, puzzle: Same State NG 1)”, the “apparent KD of MS2 coat protein” value under setting [4] came out at 13.7 nM.
With “AUGCCAAAGCGAGGAUAUGGAGCCUUAUUGGCUCCAGAAGGUGUGACAUGAGGAUCACCCAUGUGGCAGUGGUCUAAUGACCAC [Eli NG1ss - 41] (Eterna round: R96, puzzle: Same State NG 1)”, the “apparent KD of MS2 coat protein” value is, setting by setting: (input ligand: FMN 200 uM) 63.3 nM; under setting [4], 64.6 nM; (input ligand: none) 86.7 nM.
The matching figures for “AUGGUGCAGGUACAGGAUAUGUUGCUCGUAACAUGAGGAUCACCCAUGUACCUAUGAGAUUAAAUGCAGAAGGGUGCACACCACG [Quorra] (Eterna round: R96, puzzle: Same State 2)”: 62.8 nM, 406 nM and 1260 nM.
“AUUAAACAUGAGGAUCACCCAUGUCAACAAAGUCGAGGAUAUGGGCAAAUAAAAUAAGUACCAGAAGGCGAAUAAU [salish99_ss1_r3_066] (Eterna round: R96, puzzle: Same State 1)”: the “apparent KD of MS2 coat protein” value came out at 21.4 nM (input ligand: FMN 200 uM), 66.1 nM under setting [4] and 103 nM (input ligand: none).
As for “AUUAAACAUGAGGAUCACCCAUGUCAACAAAGUCGAGGAUAUGGGCAAAUAAAAUAAGUACCAGAAGGCGAAUAAU [salish99_ss1_r3_066] (puzzle: Same State 1)”, under setting [2], the “apparent KD of MS2 coat protein” value came out at 149 nM.
Consider “AUUAAACAUGAGGAUCACCCAUGUCAACAAAGUCGAGGAUAUGGGCAAAUAAAAUUAGAACCAGAAGGCGAAUAAU [salish99_ss1_r3_063] (puzzle: Same State 1)”, for which the “apparent KD of MS2 coat protein” value under setting [1] was 29.2 nM, the “apparent KD of MS2 coat protein” value under setting [2] worked out at 167 nM and the “apparent KD of MS2 coat protein” value under setting [3] is 229 nM.
On the same counts, the results for “AUUAAACAUGAGGAUCACCCAUGUCAACAAAGUCGAGGAUAUGGGCAAAUUAUAUAAUAACCAGAAGGCGAAUAAU [salish99_ss1_r3_083] (puzzle: Same State 1)” are 15.2 nM, 18.9 nM and 14.2 nM.
On the same counts, the results for “AUUAAACAUGAGGAUCACCCAUGUCUACAAAGUCGAGGAUAUGGGCAAAUAAAAUAAGAACCAGAAGGCGAAUAAU [salish99_ss1_r3_072] (puzzle: Same State 1)” are 60.3 nM, 613 nM and 533 nM.
For “AUUAAUUAAUUAAUACAUGAGGAUCACCCAUGUAAUAAGAUCAAGGAUAUCAGCUCGUUUAGAGCUGAGAAGGUGAUCACAUGU [SSNG3/17-B3] (Eterna round: R96, puzzle: Same State NG 3)”, the “apparent KD of MS2 coat protein” value under setting [4] was found to be 246 nM.
“AUUACUAAUGCAGGAUAUGAUUAACAUGAGGAUCACCCAUGUGGUGUUGUGAGUAAGGAGAGUGAUCAGAAGGGCAUUUUUUUU [JMF's solution 29] (Eterna round: R96, puzzle: Same State NG 2)”: the “apparent KD of MS2 coat protein” value by setting is: (input ligand: FMN 200 uM) 518 nM; under setting [4], 362 nM; (input ligand: none) 325 nM.
As to “AUUAGUUGCGGGCAGGAUAUGUAUUAAAAUACAUGAGGAUCACCCAUGUGCGGGUAUAACACCCGACAGAAGGGCCAAUCGCGAC [Mat - Same State 2 - Mod of UCT - D93] (puzzle: Same State 2)”, the “apparent KD of MS2 coat protein” value under setting [1] is 25.4 nM, the “apparent KD of MS2 coat protein” value under setting [2] turned out to be 250 nM and the “apparent KD of MS2 coat protein” value under setting [3] was determined as 409 nM.
As for “AUUAUUAAUGCAGGAUAUGAUUAACAUGAGGAUCACCCAUGUGGUGUUGUGAGUAAGGAGAGUGAUCAGAAGGGCAUUUUUAUU [JMF's solution 13] (Eterna round: R96, puzzle: Same State NG 2)”, the “apparent KD of MS2 coat protein” value (input ligand: FMN 200 uM) came out at 1020 nM, the “apparent KD of MS2 coat protein” value under setting [4] is 353 nM and the “apparent KD of MS2 coat protein” value (input ligand: none) turned out to be 808 nM.
On the same counts, the results for “AUUAUUUAUGCAGGAUAUGAUUAACAUGAGGAUCACCCAUGUGGUGUUGUGAGUAAGGAGAGUGAUCAGAAGGGCAUUUUAUUU [JMF's solution 50] (Eterna round: R96, puzzle: Same State NG 2)” are 1560 nM, 522 nM and 571 nM.
The matching figures for “AUUAUUUAUGCAGGAUAUGAUUAACAUGAGGAUCACCCAUGUGGUGUUGUGAGUAAGGAGAGUGAUCAGAAGGGCAUUUUGUUU [JMF's solution 51] (Eterna round: R96, puzzle: Same State NG 2)”: 794 nM, 321 nM and 451 nM.

The values are drawn from the supplement of paper PMC9170038.
